Test [1] has as its target A244 Δ11 gp120 (HIV-1). As to the kind of experiment: SPR; 17b flowed over A244gD- d11 (batch 110608) held on immobilised A32 (A32-triggered Env); response axis in RU.
Test [2] deals with A244 Δ11 gp120 (HIV-1). Briefly: SPR; 17b flowed over A244gD- d11 (batch 110608) held on immobilised A32 (A32-triggered Env).
The target in test [3] is A244 Δ11 gp120 (HIV-1). As to the kind of experiment: SPR; 17b flowed over A244gD- d11 (batch 110608) held on immobilised T8 (T8-triggered Env); response axis in RU. A general note: Surface plasmon resonance follows binding to a sensor surface in real time, without labels.
Test [4] addresses A244 Δ11 gp120 (HIV-1). Briefly: SPR; 17b flowed over A244gD- d11 (batch 110608) held on immobilised sCD4 (sCD4-triggered Env); response axis in RU.
The target of test [5] is A244 Δ11 gp120 (HIV-1). As to the kind of experiment: SPR; 17b flowed over A244gD- d11 (batch 110608) held on immobilised sCD4 (sCD4-triggered Env).
Test [6] has as its target A244 Δ11 gp120 (HIV-1). As to the kind of experiment: SPR; A244 gp120 gD- Δ11 293T monomer batch 110608 flowed over immobilised T8; ratio to ConS gp140.
Test [7] deals with A244 Δ11 gp120 (HIV-1). Briefly: SPR; A244 gp120 gD- Δ11 293T monomer batch 110608 flowed over immobilised T8; response axis in RU.
Test [8] deals with A244 gp120 (no modifications) (HIV-1). Briefly: SPR, mAb captured on anti-Fc surface, monomeric gp120 as analyte.
The target in test [9] is A244 Δ11 gp120 (HIV-1). Described as above.
Test [10] has as its target A244 gDΔ11 gp120 (Herpes simplex virus; HIV-1). The description is as above.
Test [11] addresses A244 Δ11 gp120 (HIV-1). Briefly: SPR.
The target of test [12] is A244 gDΔ11 gp120 (Herpes simplex virus; HIV-1). Briefly: SPR.
For test [13], the target named is A244 gp120 (no modifications) (HIV-1). As to the kind of experiment: Kd table; row AE.A244 gp120, column CH01 gD-; method not given.
Test [14] concerns the target A244 gDΔ11 gp120 (Herpes simplex virus; HIV-1). As to the kind of experiment: Kd table; row AE.A244 gp120, column CH01 gD+; method not given.
Test [15] shares this target. Briefly: SPR titration, binding to CH01 mAb; A244 gD+ 293Tmon at [5], [10], [25], [50], [100], unit inferred.
Test [16] shares this target. Briefly: SPR titration, binding to CH01 mAb; A244 gD+ 293Tmon at [5] to [100], unit inferred; footnote: '* Fit deviation, need to lower Ag density'.
The target in test [17] is MN gp120 (no modifications) (HIV-1). As to the kind of experiment: Kd table; row B.MN gp120, column CH01 gD-; method not given.
Test [18] deals with A244 Δ11 gp120 (HIV-1). As to the kind of experiment: SPR titration, binding to CH01 mAb; A244 gDneg D11 at [10], [25], [50], [75], [100], unit inferred.
Test [19] deals with A244 gp120 (no modifications) (HIV-1). Briefly: SPR titration, binding to CH01 mAb; A244 gDneg at [10], [25], [50], [75], [100], unit inferred.
Test [20] has as its target MN gDΔ11 gp120 (Herpes simplex virus; HIV-1). Briefly: Kd table; row B.MN gp120, column CH01 gD+; method not given.
Test [21] has as its target A244 Δ11 gp120 (HIV-1). As to the kind of experiment: SPR blocking on immobilized A244 Δ11 gp120, mAb injected to near saturation, then RV144 vaccinee IgG; against 7B2 control.
Test [22] has as its target A244 gp120 (no modifications) (HIV-1). As to the kind of experiment: SPR titration, binding to CH01 mAb; A244 gDneg at [10] to [100], unit inferred.
The target of test [23] is A244 Δ11 gp120 (HIV-1). As to the kind of experiment: SPR titration, binding to CH01 mAb; A244 gDneg D11 at [10] to [100], unit inferred.
Test [24] deals with A244 gp120 (no modifications) (HIV-1). Briefly: SPR titration, binding to CH01 mAb; A244 gDneg at [10] to [100], unit inferred; the sheet prints a slash where a decimal point is meant (kd/ka as printed gives 3.1 µM).
The target in test [25] is A244 gDΔ11 gp120 (Herpes simplex virus; HIV-1). Briefly: SPR titration, binding to CH01 mAb; A244 gD+ 293Tmon at [5] to [100], unit inferred.
Test [26] deals with MN gDΔ11 gp120 (Herpes simplex virus; HIV-1). As to the kind of experiment: Kd table; row B.MN gp120, column PG9 gD+; method not given.
Test [27] concerns the target A244 gDΔ11 gp120 (Herpes simplex virus; HIV-1). As to the kind of experiment: SPR titration, binding to PG9 mAb (IAVI PG9); A244 gD+293Tmon at [10], [20], [30], [40], unit inferred.
The target is the same in test [28]. As to the kind of experiment: Kd table; row AE.A244 gp120, column PG9 gD+; method not given.
Test [29] has the same target. As to the kind of experiment: SPR titration, binding to PG9 mAb (IAVI PG9); A244 gD+293Tmon at [10] to [40], unit inferred.
Test [30] deals with 92TH023 gDΔ11 gp120 (Herpes simplex virus; HIV-1). As to the kind of experiment: Kd table; row AE.92TH023 gp120, column PG9 gD+; method not given.
For test [31], the target named is A244 gp120 (no modifications) (HIV-1). As to the kind of experiment: Kd table; row AE.A244 gp120, column PG9 gD-; method not given.
Test [32] addresses A244 Δ11 gp120 (HIV-1). As to the kind of experiment: SPR titration, binding to PG9 mAb (IAVI PG9); A244 gDneg D11 at [10] to [100], unit inferred.
For test [33], the target named is A244 Δ11 gp120 (HIV-1). Briefly: SPR titration, binding to PG9 mAb (IAVI PG9); A244 gDneg D11 at [10], [25], [50], [75], [100], unit inferred.
In test [34] the target is MN gp120 (no modifications) (HIV-1). As to the kind of experiment: Kd table; row B.MN gp120, column PG9 gD-; method not given.
In test [35] the target is MN-rgp120 (RV144 vaccine immunogen) (Herpes simplex virus; HIV-1). Briefly: SPR, mAb captured on anti-Fc surface, gp120 as analyte (FIG. 28).
The target in test [36] is A244-rgp120 (RV144 vaccine immunogen) (Herpes simplex virus; HIV-1). Briefly: SPR; 19b captured on anti-Fc surface, RV144 A244-rgp120 injected at 0.5-5 µg/mL; fitted curves [lower row].
Test [37] concerns the target MN-rgp120 (RV144 vaccine immunogen) (Herpes simplex virus; HIV-1). As to the kind of experiment: SPR; 19b captured on anti-Fc surface, RV144 MN-rgp120 injected at 0.5-5 µg/mL; fitted curves.
In test [38] the target is A244 gp120 (no modifications) (HIV-1). Briefly: SPR titration, binding to CH03 mAb; A244 gDneg at [10] to [100], unit inferred.
The target of test [39] is A244 Δ11 gp120 (HIV-1). As to the kind of experiment: SPR titration, binding to CH03 mAb; A244 gDneg D11 at [10] to [100], unit inferred.
The target of test [40] is A244 Δ11 gp120 (HIV-1). Briefly: SPR titration, binding to CH03 mAb; A244 gDneg D11 at [10], [25], [50], [75], [100], unit inferred.

Here are results for eight substances from patent US10040826.

Take “CCR5 receptor gp120 binding site mAb 17b (antibody)”: the Req was 529 in test [1], -169 in test [3] and 166 in [4]. Also, the 17b binding ratio in test [2] amounted to 0.327; in test [5], 0.316.
With T8 (C1 mAb) (antibody), in test [6], the Relative Binding Env/ConS gp140 was 2.88. The Req in test [7] was found to be 1250.
Regarding V2 mAb 830A (antibody), the Kd in test [8] was found to be 10.2 nM; in [9] it was 1.56 nM; in test [10], 1.7 nM. The off-rate (koff) in test [8] amounted to 0.00022 s⁻¹; in [9], 8.8e-05 s⁻¹; in test [10], 7e-05 s⁻¹. Moreover, the kon in test [8] is 21800 M⁻¹ s⁻¹; in [9] it was 59900 M⁻¹ s⁻¹; in test [10], 41100 M⁻¹ s⁻¹. Moreover, the fold more avid than to unmodified A244 gp120 in [11] and in test [12] was 5 fold each time.
As for V2V3 bnAb CH01 (antibody), the Kd in test [13] turned out to be 2100 nM; in [14] it was 200 nM; in test [16], 290 nM; in [8] it was 1640 nM; in test [9] it was 317 nM; in test [10], 278 nM. For the same substance, the dissociation constant Kd in test [17] stood at 457 nM; in test [20], 288 nM; in test [23] it was 430 nM; in test [24], 3.1 µM. Besides, the association rate constant (kon) was found to be 9800 M⁻¹ s⁻¹ in test [15]; 3730 M⁻¹ s⁻¹ in test [8]; 49000 M⁻¹ s⁻¹ in [9]; 37200 M⁻¹ s⁻¹ in test [10]; 31100 M⁻¹ s⁻¹ in test [18]; 760 M⁻¹ s⁻¹ in [19]. Also, the koff in test [8] was found to be 0.00438 s⁻¹; in test [9], 0.0156 s⁻¹; in [10], 0.0099 s⁻¹; in test [22] it was 0.00237 s⁻¹; in test [23], 0.0135 s⁻¹; in test [25] it was 0.0028 s⁻¹. This substance also registered a percent blocking of RV144 vaccinee IgG binding in test [21] of 24.6%. Further, the fold faster association rate than with unmodified gp120 in test [11] and in test [12] was 10 fold in each case. Moreover, the fold higher affinity than for unmodified A244 gp120 in test [11] and in [12] was 5 fold each time.
V2V3 bnAb PG9 (antibody): the dissociation constant (Kd) in test [26] stood at 542 nM; in test [28], 128 nM; in [29], 62.7 nM; in test [8] it was 183 nM; in test [9] it was 52.6 nM; in [10] it was 48.1 nM. The equilibrium dissociation constant (Kd) is 212 nM in test [30], 1100 nM in test [31], 88.7 nM in test [32] and 347 nM in test [34]. Besides, the kon in test [27] was found to be 16800 M⁻¹ s⁻¹; in [8] it was 5000 M⁻¹ s⁻¹; in test [9], 10900 M⁻¹ s⁻¹; in test [10], 11500 M⁻¹ s⁻¹; in test [33], 11500 M⁻¹ s⁻¹. Further, the koff is 0.00105 s⁻¹ in test [29]; 0.0011 s⁻¹ in [8]; 0.00057 s⁻¹ in [9]; 0.00055 s⁻¹ in test [10]; 0.00102 s⁻¹ in [32]. Besides, the fold higher affinity than for unmodified A244 gp120 in [11] and in [12] was 3 fold each time.
In turn, V3 mAb 19b (antibody) had a fold lower Kd than for A244-rgp120 in [35] of 5 fold. Moreover, the equilibrium dissociation constant (Kd) in test [36] is 15.3 nM; in test [8] it was 11.8 nM; in [9], 6.54 nM; in test [10] it was 8.24 nM; in test [37] it was 3.4 nM. Moreover, the koff in test [8] is 0.00154 s⁻¹; in test [9], 0.00156 s⁻¹; in test [10], 0.0014 s⁻¹. Further, the kon in test [8] was 130000 M⁻¹ s⁻¹; in test [9] it was 239000 M⁻¹ s⁻¹; in test [10], 170000 M⁻¹ s⁻¹.
Turning to VRC01 (CD4 bs mAb) (antibody), the Kd in test [8] was found to be 15.7 nM; in [9] it was 36.7 nM; in test [10], 15.8 nM. Also, the off-rate constant (koff) in test [8] was 0.00028 s⁻¹; in test [9], 0.00039 s⁻¹; in test [10], 0.00021 s⁻¹. Also, the on-rate (kon) in test [8] was 17600 M⁻¹ s⁻¹; in test [9] it was 9700 M⁻¹ s⁻¹; in [10] it was 13300 M⁻¹ s⁻¹.
In test [38], “mAb CH03 (V2,V3 conformational) (antibody)” showed a Kd of 5.5 µM and an off-rate (koff) of 0.0055 s⁻¹. Further, in test [39], the Kd amounted to 620 nM and the off-rate constant (koff) was 0.0167 s⁻¹. The substance also registered a kon in test [40] of 27000 M⁻¹ s⁻¹.

What is called Kd is the free concentration of one partner at which half of the binding sites on the other are occupied at equilibrium, for simple one-to-one binding. The low end stands for a tighter complex, the high end for a looser complex. For orientation: koff means a measure of how fast the partners let go of each other. Read a low koff as a long-lived complex. A word on the kon: it is a measure of how fast the partners come together. Read a low kon as slow association.
